Measured values reported in the supplement of paper PMC7877785.
± gives the uncertainty stated by the source.

Assay: self-splicing fitness, log relative to wild type (ln ratio); higher = more splicing; Tetrahymena group I intron in knt gene, E. coli kanamycin selection, DiMSum; sequences stand for … in CUCUCU…GGAGGGAAAAGUUAUCAGGCAUGCACCUGGUAGCUAGUCUUUAAACCAAUAGAUUGCAUCGGUUUAAAAGGCAAGACCGUCAAAUUGCGGGAAAGGGGUCAACAGCCGUUCAGUACCAAGUCUCAGGGGAAACUUUGAGAUGGCCUUGCAAAGGGUAUGGUAAUAAGCUGACGGACAUGGUCCUAACCACGCAGCCAAGUCCUAAGUCAACAGAUCUUCUGUUGAUAUGGAUGCAGUUCACAGACUAAAUGUCGGUCGGGGAAGAUGUAUUCUUCUCAUAAGAUAUAGUCGGACCUCUCCUUAAUGGGAGCUAGCGGAUGAAGUGAUGCAACACUGGAGCCGCUGGGAACUAAUUUGUAUGCGAAAGUAUAUUGAUUAGUUUUGGAGUACUCGUGGUCG
In short: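 Pooled colonies went to amplicon sequencing on an Illumina HiSeq 2500 after six replicate transformations. The plates were LB agar with 100 μg/mL carbenicillin, 50 μM IPTG and 0.2% rhamnose, with or without 25 μg/mL kanamycin, incubated overnight at 37°C or 30°C. The E. coli BL21(DE3) library had all eight P1ex-region intron nucleotides randomised, the intron placed in the knt kanamycin-resistance gene on pET-22b(+). DiMSum fitness is the error-weighted combination of replicate fold changes, kanamycin against none, normalised to wild type.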

Sequence	self-splicing fitness (ln) (30 °C)	self-splicing fitness (ln) (37 °C)
GGUUAGCAAUAUUACGAGGA	-3.3 ± 0.29	-1.96 ± 0.24
AGAAAGCAAUAUUACGUCGG	-1.37 ± 0.088	-1.04 ± 0.11
CGCAAGCAAUAUUACGAAUG	-1.4 ± 0.1	-0.303 ± 0.1
GGCCAGCAAUAUUACGCAGC	-3.08 ± 0.37	-1.88 ± 0.33
GUUCAGCAAUAUUACGGGGC	-2.68 ± 0.16	-2.78 ± 0.21
GCCCAGCAAUAUUACGGUUC	-0.85 ± 0.043	-0.0899 ± 0.059
GCCCAGCAAUAUUACGAUCC	-0.561 ± 0.13	-0.336 ± 0.19
UGCCAGCAAUAUUACGCCGU	-3.97 ± 0.39	-2.32 ± 0.32
AGACAGCAAUAUUACGAGCU	-1.22 ± 0.085	-1.15 ± 0.11
UUGUAGCAAUAUUACGAUCU	–	-2.38 ± 0.27
UCGCAGCAAUAUUACGCAUC	-2.52 ± 0.21	-1.57 ± 0.17
CUCCAGCAAUAUUACGCAGU	-3.59 ± 0.21	-2.04 ± 0.23
UACGAGCAAUAUUACGGUGG	-3.62 ± 0.14	-2.13 ± 0.11
UUGGAGCAAUAUUACGUGGA	-2.9 ± 0.33	-2.24 ± 0.25
UUGCAGCAAUAUUACGACAG	-0.32 ± 0.11	0.414 ± 0.15
AUACAGCAAUAUUACGGUCC	-1.18 ± 0.097	0.135 ± 0.11
CGUGAGCAAUAUUACGCUCG	-2.69 ± 0.26	-2.64 ± 0.24
GCUGAGCAAUAUUACGGCGU	-0.642 ± 0.14	0.234 ± 0.15
UGCAAGCAAUAUUACGUUUG	-4.16 ± 0.33	-2.87 ± 0.33
CUAAAGCAAUAUUACGGAGC	-3.27 ± 0.31	-1.2 ± 0.29
CUGCAGCAAUAUUACGCCAG	-2.56 ± 0.42	-1.07 ± 0.21
AGCGAGCAAUAUUACGAUUG	-4.39 ± 0.42	-1.52 ± 0.34
CCACAGCAAUAUUACGUUCU	-2.77 ± 0.1	-3.7 ± 0.19
UCAAAGCAAUAUUACGGCAA	-1.37 ± 0.15	-0.568 ± 0.12
CAGUAGCAAUAUUACGGUGA	-4.04 ± 0.31	-2.58 ± 0.24
CGUAAGCAAUAUUACGAGCA	-1.84 ± 0.48	-1.33 ± 0.22

Sequence	self-splicing fitness (ln) (30 °C)	self-splicing fitness (ln) (37 °C)
ACACAGCAAUAUUACGGCAA	-1.49 ± 0.077	-0.943 ± 0.081
ACCUAGCAAUAUUACGAGGU	-3.09 ± 0.17	-2.43 ± 0.17
GUCAAGCAAUAUUACGGGGA	–	-2.77 ± 0.44
UUUAAGCAAUAUUACGAUCU	-1.05 ± 0.1	-0.724 ± 0.13
UCACAGCAAUAUUACGCGGG	-3.28 ± 0.12	-2.56 ± 0.16
CACGAGCAAUAUUACGUAUG	-3.54 ± 0.14	-2.79 ± 0.16
AAGCAGCAAUAUUACGCUAU	-2.17 ± 0.14	-0.814 ± 0.13
UGGUAGCAAUAUUACGAAGG	-2.95 ± 0.28	-1.39 ± 0.24
GGGAAGCAAUAUUACGCUUG	-1.61 ± 0.21	-0.729 ± 0.2
GUGAAGCAAUAUUACGCUUU	-4.83 ± 0.36	-2.84 ± 0.43
GCCAAGCAAUAUUACGGCUA	-1.66 ± 0.17	-1.39 ± 0.15
ACACAGCAAUAUUACGGCUU	-0.496 ± 0.04	-0.0695 ± 0.057
CGUGAGCAAUAUUACGUAAG	-0.896 ± 0.1	-1.14 ± 0.15
CAGGAGCAAUAUUACGGUAU	-3.42 ± 0.15	-2.86 ± 0.16
UAUAAGCAAUAUUACGAGGA	-2.44 ± 0.42	–
GGGAAGCAAUAUUACGAGCG	-1.41 ± 0.12	-0.447 ± 0.15
AAGGAGCAAUAUUACGCUCU	-3.15 ± 0.18	-3.85 ± 0.42
CUUCAGCAAUAUUACGAAUA	-2.77 ± 0.14	-2.09 ± 0.13
UGUUAGCAAUAUUACGCCCA	0.342 ± 0.28	-0.34 ± 0.41
UGAUAGCAAUAUUACGUACC	-1.76 ± 0.2	-1.6 ± 0.26
ACAGAGCAAUAUUACGCAUU	-4.18 ± 0.27	-2.99 ± 0.31
CACCAGCAAUAUUACGGUAC	-3.11 ± 0.11	-2.13 ± 0.1
AUAAAGCAAUAUUACGAACU	0.222 ± 0.095	0.227 ± 0.11
CCAGAGCAAUAUUACGUCCG	-1.7 ± 0.12	0.0963 ± 0.14
GAUCAGCAAUAUUACGAUAU	-0.637 ± 0.08	0.658 ± 0.11
AAAGAGCAAUAUUACGCCAU	-3.65 ± 0.22	-2.55 ± 0.29

Sequence	self-splicing fitness (ln) (30 °C)	self-splicing fitness (ln) (37 °C)
GCAUAGCAAUAUUACGAACG	-0.883 ± 0.14	-0.356 ± 0.18
CAGCAGCAAUAUUACGUUAA	-3.01 ± 0.11	-1.66 ± 0.1
AAUAAGCAAUAUUACGCCCA	0.0107 ± 0.1	-0.447 ± 0.15
AUCUAGCAAUAUUACGCAAA	-2.59 ± 0.29	-3.24 ± 0.39
ACGAAGCAAUAUUACGUAUU	-3.11 ± 0.087	-2.18 ± 0.093
GAAUAGCAAUAUUACGUCAA	-2.1 ± 0.14	-1.95 ± 0.13
GUGUAGCAAUAUUACGGUUU	-1.04 ± 0.086	-0.738 ± 0.11
UUAGAGCAAUAUUACGCGUU	-2.85 ± 0.17	-1.62 ± 0.17
AAUGAGCAAUAUUACGGGCA	-3.76 ± 0.42	-1.24 ± 0.29
AGCCAGCAAUAUUACGUCCU	-0.436 ± 0.071	0.142 ± 0.078
CCGCAGCAAUAUUACGAAAA	-3.37 ± 0.21	-2.39 ± 0.16
UAUUAGCAAUAUUACGUAGG	-1.57 ± 0.14	-1.33 ± 0.23
UACUAGCAAUAUUACGUGGU	-2.87 ± 0.14	-2.75 ± 0.17
AGCCAGCAAUAUUACGAAAC	-3.51 ± 0.48	-1.38 ± 0.26
CAAAAGCAAUAUUACGCUCA	-1.64 ± 0.11	-0.465 ± 0.13
UAUGAGCAAUAUUACGUUAG	-2.63 ± 0.17	-2.23 ± 0.22
CUCGAGCAAUAUUACGCACU	-2.96 ± 0.3	–
GUGCAGCAAUAUUACGUUAG	-2.62 ± 0.14	-0.353 ± 0.11
AGACAGCAAUAUUACGGCCU	-1.2 ± 0.085	-0.234 ± 0.09
CCGUAGCAAUAUUACGUCGU	-3.2 ± 0.18	-1.25 ± 0.16
ACUGAGCAAUAUUACGCUAG	-1.72 ± 0.2	-3.23 ± 0.34
ACUAAGCAAUAUUACGUCGU	-3.51 ± 0.17	-1.16 ± 0.12
UCUGAGCAAUAUUACGUGAA	-2.32 ± 0.17	-1.9 ± 0.27
AAACAGCAAUAUUACGUCAU	-3.39 ± 0.12	-1.55 ± 0.085
